Experimental data published in a protein production outcome set (Wang et al. 2014).

Test: label from the status in PepcDB records
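Also: failed if final PepcDB status was selected cloned or expressed and not failed if soluble or beyond.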

| Sequence | protein production |
| --- | --- |
| MDEILARAGIFQGVEPSAIAALTKQLQPVDFPRGHTVFAEGEPGDRLYIIISGKVKIGRRAPDGRENLLTIMGPSDMFGELSIFDPGPRTSSATTITEVRAVSMDRDALRSWIADRPEISEQLLRVLARRLRRTNNNLADLIFTDVPGRVAKQLLQLAQRFGTQEGGALRVTHDLTQEEIAQLVGASRETVNKALADFAHRGWIRLEGKSVLISDSERLARRAR | not failed |
| MKVNKRVLSIGLAISLIMAGAPNINALSSIEKIQGKDRYETAAKIAQKQTYENVVLVNTDNTLADGLSASGLAGTVKAPILLSQRNSIPSDTEKMLKDVKKVYIIGTEDSIGKSVENELKQKGIEVKRIGGNDRIETSYLIAKEIASIKPIDKVFITNGYTGEADAMSASSVASRDGAPIILTNGKNVPFEKKEGVQCYALGSEEIISNDLVKKTNSVRLAGEDRFETNKKVIKHFYSSAKEFYLSKGYQLVDAVAGSSIAKNAPIVLVDGNSDKSVLRSADKITALGGIDEKTLEQCLSASSLDASAPTITVGNLNIYQGDKFDISKLNIVAKDSNGNDLTPELIGNINTDKVGKYKVTIKATDIGGKTTSISVEVNVLEYKTNDMNSSEFKRMVSSEMYSLVNSYRKEKGKEPLQVSENLQGMANYWSKYMADKGEFAHVINGKNAAEVFSGGIRSEENIAFVPLTTKSTYTTKDAREVANVIFTVWKKSDKYNENMLSSKFAYTGFGLYILPDGQVYATQEFLNK | failed |
| MMMLPEACVANILAFTSPADAFSSSEVSSVFRLAGDSDFVWEKFLPSHYKSLISQSTDHHRIFSSKKEIYRCLCDSLLIDNARKLFKINKFSGKISYILSARDISITYSDHASYCSWSNVSDSRFSESAELITTDRLEIKGKIQTTVLSPNTKYGAYLIMKVTNGAYGLDLVPAETSVKSKNGQNNKNTTYLCCLDEKKQQMKRLFYGNREERMAMTVEAVGGDGKRREPKARDDGWLEIELGEFVTREGEDDEVNMSLTEVKGYQLKGGIVIDGIEVRPIPLK | failed |
| MMNRLAVRIPTMHSFAWTAADAASRWRLLRISMLLQGFPRNPEPAVRAPDLWRTRVGGGSFGVLFLEAAEVPEALPMQGLSASLVLIAVLAVLAPVATRLLDRWVKVPIVVFEIVLGILFGPSVLGWVQSTPFTDTLADFGLAMLFFVAGNEIDFAAIRGRPIYRASAGWVISLAAGIGAGFVLGPSPEAAVIIGVALCSTALGALLPILRDAGASKSPIGVAATALGAAGEFGPLIAISLFFSGKQLGVASGVLLGFVLLTGVAIYLASQARHTLFHAQVTATLHTSSQFAMRSILLILSSLVVLSMVLGLDMLLGAFAAGVLWKVTIARAPVADRKVIETKIDAVAFGFLVPIFFIDTGIDFDLGALTSSPLTLAMVPLFLSLLLLIRGVPSLLATPPGSSRADKQALLLFGATALPIIVAVTTIGREHGYITSGISSALIGAGMLSVLLFPLLALRLLRRTEAADPKQRTPKA | failed |
| MSLRKQSWLWMLLVILSETSATSTLKMFDNSQGMTKAALLAIIILLYCVCYYSLSKAVRHLPVGLAYATWSGTGILLVSTLSIIFYGQHPDIPAIVGMIVIATGIMIMNLFSKMGVDEQPEKLDSSNQSQPLETKIIH | failed |
| MRSQALRADVLMLITAVIWGSAFVAQTSGMNHIGPFLYSGLRFALGSLCLLPLVLRKTPTDRQPEPLLNRGLLLGGVLMGLALALGINLQQVGLMFTTVTNAGFITGLYVIVVPLLGLLIGHKTGLGTWLGAVLAVVGMFLLSVSDSFHVASGDWLQLIGAFVWGGHVILVGVFAGRHDPIRLAFLQFATCAVVSLILALCLEPLRWEAIVGAGPAILYGGVVAVGIGYTLQVIAQKDAIASHAAIILSLEAVFAAIAGAWLLDESLQARGYFGCALMLSGMLVAQLWPQKPHSSTTTQRA | failed |
| MRLLFSFSCRRRWRERERLRRMREIKMIKLPHKKPIIFFCQLFLIATLIIACHQTTIHTSTNTCTPNYNPNQDYFPNKIKITHARGLAVEYHKHYKVVTIKNPWQNAKTQFQYVLVQCGTPTPQGFKQAQVITVPIHSIVSLSTTHLPHLAKLGVVDKLIGISNSKQVNTPDVVERIKAGKITQVGNNSNVDIERLLELNPDLVTTFGTGNSQTDSYSKLTEAGLKVGINAEYMEDTPLGRSEWLKFTALFFNQEEKAEKIFAEITDKYEQVAQKVKSVKNRPTVFVGFNFKGTWFMPGGNSYVAKYLADAGGDYLWSNEQSAGSLPLSFEVVLERATNADYWLNFSQSWQSLKDLLAEDNRYADFKSVKIGNLYNNNARVNESGGNDYWEGGISNPDIVLSDLIRILHPEILPNHQLFYYHKILK | failed |
| MIPTISDVSTVEEWRSVAKDIVQRDGDVNWRATIVDWPGLGYSARPKMDYDTDVMEKFVVDFMNSPESPMSQSGNDDLVIIGGGHAATLALRATQRGLLKPSAIAAVAPTWAGPLPIVFGRDSSMVSRYGMLRGTLRAPGVGWMMYNMLVSNEKSIESQYKSHVYADQTNVTDAIIQSRYELTKQKGSRYVPAAFLTGLLDPVSSREEFLQLFADLEGKLPVMVMSTKGAPKRSKAEMEALRGAKGVSKFVEVEGALLPQEEYPSLVAQELYNFLQETFAKC | failed |
| MKMDTGALTFQQKIYWLVKQIPLGRVATYGQIAALCGWPRHGRYVGYALYRVAPNSDIPWHRVVNAQGKISYAPQRRGTDELQRWRLAAEGIIFTAGDRINLRRYQWQPPATVYQQLIWPEGAATDSAKAKVG | failed |
| MQIPIYSKLKTKLESKGIDNISSGQIAWFVCSLILALVTYIILTFHYIYISYGKYDKNLFLLIFDRNAIELFVIVYSCIMFNLLYIYNAIPLVLSAVFIFLAFYFSSLSLFIVGCCGIGVFFLISIFKRKFMFSVLLFALGYTCTLFFFYGLATY | failed |
| MWGYVHLISWVAIVVLTVTALLIYSKSVKGFTMLQMINRVFYILVILSGIMMVQYSVKESWILAIFKILMGIIVIGVVEMLLSYRKQQKPTGMFLMIFIIVVVITVSLGFYLSGGYPLFN | failed |
| MIITIANEKGGSGKSTLCLNLCVQLLLDKKDIAALDTDSQKSLEVFNNIRSETSLPNFTLFNRTGNITDTLKQMMDKYEYILIDTKGEHSKESQRAMLLSDWVLIPTTPSQLDTAVLLDMLERIRDIQALNENLKACIVMNRIPTIPTLKEKKALIDFINQNNANESVFLMDNLLSERIAYKRSVSEGMGVMEYNDNKAKNEWSQFYDELNGYLRIKK | failed |
| MWTVLIINLLIAIVLTYFGLKERNENFSWFTASGAFIVFGLILLISTIPVFNDFNESSLLMFIGGILSILGIITLIIGLVTRAVKIVSLRDVAIAMEIAAVCVIYLIHNLDLSFINLFVPELSVIIGFLLFVFSRKKN | failed |
| DETYYTVDLEQKLEEKFGLEEAIVVATHDMSEEEALNFLAKEAAYTLSKRIAKVNTLGISWGKTIRKFANEFPYIPHKDLTIIPLIGGMGSSDIDLHSNQICYDLKKKMQCHSKYLYAPALVEDTEMKADLSKNKYINEVLEEGKTVDMAIVGVSSPYNQSTMEEIGYITPEDIEELRYKDVVGDINSRFFTANGEEANTQINTHVIGLSLEELKKIPTVVALANGLQKKDALVSALNAGLIDVIVITDRMAEYILQKND | failed |
| MKQIRLLAQYYVDLMVKLGLVRFSLLLASVLVLLAMVVQMAVTLLLSGEVENIDVVRSIFFGLLITPWAVYFLSVVVEQLEESRQRLSKLVAKLEEMRHRDLELNVQLQENIAQLNQEIADRIKAEEARVLVMSRLKEEMSRREQAQIELEQQSALLRSFLDASPDLVYYRNEEKEFSGCNRAMELLVGKSQKQLIGLTPQDVYAPDIAEKVMETDEKVFRHNVSLTYEQWLVYPDGRKACFELRKVPFYDRMGKRHGLMGFGRDITERKRYQDALENASRDKTTFISTISHELRTPLNGIVGLSRILLDTQLDLEQQKYLKTIHVSAITLGNIFNDVIEMDKQERRKVQLDNQPIDFTGFLVDLENLGGLLAEQKGLKLIMDQHQPLPQKVITDGTRLRQILWNLLSNAVKFTPKGEKGEKGEIVVRVWHEKGDRLRFEVEDSGMGIPADELEKIFAMYYQVKDQHGGKPATGSGIGLAVSKRLAQNMGGDIHVSSSQGKGSCFTLTVIAPSADEAGSGLEDDDDLPLPALHVLLVEDIELNVVVARSVLEKLGNSVDVAMTGQEALDMFDPDEFDLVLLDIQLPDMTGLDVARQLRSRYGKRSLPPLVALTANVLKDKREYLDAGMDDVLSKPLSVPALTAVIKQHWDTHTVWTEESVVEEGDEMAKVKEDLLDIPMLEQYLDLVGPKLIHQSLEMFEQMMPGYLAILDSNMTARDQKGITEEGHKIKGAAGSVGLRHLQQIAQQIQTSSLPAWWDNVQEWIDELKHDWRHDVQVLRDWVAKAEKES | failed |
| MLCCMRRTKQVEKNDDDQKIEQDGIKPEDKAHKAATKIQASFRGHITRKKLKGEKKDDVQAAEAEANKKDEAPVADGVEKKGEGTTTAEAAPATGSKPDEPGKAGETPSEEKKGEGDAATEQAAPQAPASSEEKAGSAETESATKASTDNSPSSKAEDAPAKEEPKQADVPAAVTAAAATTPAAEDAAAKATAQPPTETGESSQAEENIEAVDETKPKESARQDEGKEEEPEADQEHA | failed |
| MKKTPIYVEISIQAEMERLWRYTQDPTLHRQWDLRFTDITYLKRRPGEPQRFLYETRIGFGLEHHHHHH | not failed |
| MQLSAPPYEERLTAPRTWWLMCFLVGVSMALILLPFGTLPLLGGLVGGTAVAAVVASSYGSIRIRVVGDSLIAGEAKIPVAALGEAEIMDQEEARAWRTYKANPRAFMLLRSYIPTALRVEVTDPQDPTPYLYLSTREPERLAAALKAARTEA | failed |
| MDPSTLMILAIVAVAIIVLAVFFTFVPVMLWISALAAGVKISIFTLVGMRLRRVIPNRVVNPLIKAHKAGLNVGTNQLESHYLAGGNVDRVVNALIAAQRANIELTFERCAAIDLAGRDVLEAVQMSVNPKVIETPFIAGVAMDGIEVKAKARITVRANIERLVGGAGEETIVARVGEGIVSTIGSSDNHKKVLENPDMISQTVLGKGLDSGTAFEILSIDIADVDIGKNIGAILQTDQAEADKNIAQAKAEERRAMAVAQEQEMRARVEEMRAKVVEAEAEVPLAMAEALREGNIGVMDYMNIKNIDADTEMRDSFGKLT | failed |
| MLSYCPNIFYLIMTTLCLVIQTGCSPAQDHVHSQLHSSISVTDRDGNTVQLNQPARRIVCLFEASVDDLYMLGAGKSIIGIPAKIYTSSDLYRAYSILDRRIYEKKIATPSNWEASTNIESVVALQPDLVIVSAGQKDVIQILNRMHIPVYSVLSENLQQTRKELLDLGKLTGKSQRASELVEFIDHEIQAIQQRNHTQSDQKTIYYGWSGGRIFSTSGRDSMPNTVMTLAGAHNVVNTAIDQPNVNPEKLIEWNPDVILLWNTNPKQIYQRSELKTLTAVKQQHVFNLSPSFLFNPHTPKILLAANQLNHWVYPAPHSDQAATQDKLRILTQFYGKTAAEQLIQYANDVTKE | failed |
| MVLLLRYRSLTINLTPLIPKSQKFHTLQSFRNPNFISIPKISASTNNPTTTTNRSISDATKFAKSVLFIPPGVEIEELTDDMVLPGSNIVIGPFAGHSQIKEVEFVKSSARARDCPKDDRPEIAILGRSNVGKSSLINCLVRKKEVALTSKKPGKTQLINHFLVNKSWYIVDLPGYGFAKVSDAAKTDWSAFTKGYFLNRDSLVCVLLLIDASVPPQKIDLDCANWLGRNNVPMTFVFTKCDKMKATKGKRPDENIKAFQQIIRENFKVHPPWILTSSVSGLGRDELLLHMSQLRNYWDQ | failed |
| MAEYEDRYWTSSDGLRLHFRAYEGDISRPPVLCLPGLTRNARDFEDLATRLAGDWRVLCPEMRGRGDSDYAKDPMTYQPMQYLQDLEALLAQEGIERFVAIGTSLGGLLTMLLAAANPARIAAAVLNDVGPEVSPEGLERIRGYVGQGRNFETWMHAARALQESSGDVYPDWDITQWLRYAKRIMVLGSSGRIAFDYDMKIAEPFEAPVGATPQVDMWPLFDALATRPLLVLRGETSDILSAQTAAKMASRPGVELVTLPRIGHAPTLDEPESIAAIGRLLERV | not failed |
| ESEKSFRILFEKSPEGFLILDGGGNILEANPAALGMLGEEMEALQGRGVFELLQGEKIPLKEEEMNQKIERIYENRLGQEVLLETILIPAQVEGKARIFAIWRDVT | failed |
